Test results taken from US20060280804A1 (CONSEJO SUPERIOR DE INVESTIGACIONES CIENTIFCAS, published 2006).
Values belong to the binder of their own block, whether it stands above or below them.

Target: T1, angiotensin converting enzyme (ACE, EC 3.4.15.1, Sigma)
T1 sequence (P12822 whole entry, species assumed, looked up): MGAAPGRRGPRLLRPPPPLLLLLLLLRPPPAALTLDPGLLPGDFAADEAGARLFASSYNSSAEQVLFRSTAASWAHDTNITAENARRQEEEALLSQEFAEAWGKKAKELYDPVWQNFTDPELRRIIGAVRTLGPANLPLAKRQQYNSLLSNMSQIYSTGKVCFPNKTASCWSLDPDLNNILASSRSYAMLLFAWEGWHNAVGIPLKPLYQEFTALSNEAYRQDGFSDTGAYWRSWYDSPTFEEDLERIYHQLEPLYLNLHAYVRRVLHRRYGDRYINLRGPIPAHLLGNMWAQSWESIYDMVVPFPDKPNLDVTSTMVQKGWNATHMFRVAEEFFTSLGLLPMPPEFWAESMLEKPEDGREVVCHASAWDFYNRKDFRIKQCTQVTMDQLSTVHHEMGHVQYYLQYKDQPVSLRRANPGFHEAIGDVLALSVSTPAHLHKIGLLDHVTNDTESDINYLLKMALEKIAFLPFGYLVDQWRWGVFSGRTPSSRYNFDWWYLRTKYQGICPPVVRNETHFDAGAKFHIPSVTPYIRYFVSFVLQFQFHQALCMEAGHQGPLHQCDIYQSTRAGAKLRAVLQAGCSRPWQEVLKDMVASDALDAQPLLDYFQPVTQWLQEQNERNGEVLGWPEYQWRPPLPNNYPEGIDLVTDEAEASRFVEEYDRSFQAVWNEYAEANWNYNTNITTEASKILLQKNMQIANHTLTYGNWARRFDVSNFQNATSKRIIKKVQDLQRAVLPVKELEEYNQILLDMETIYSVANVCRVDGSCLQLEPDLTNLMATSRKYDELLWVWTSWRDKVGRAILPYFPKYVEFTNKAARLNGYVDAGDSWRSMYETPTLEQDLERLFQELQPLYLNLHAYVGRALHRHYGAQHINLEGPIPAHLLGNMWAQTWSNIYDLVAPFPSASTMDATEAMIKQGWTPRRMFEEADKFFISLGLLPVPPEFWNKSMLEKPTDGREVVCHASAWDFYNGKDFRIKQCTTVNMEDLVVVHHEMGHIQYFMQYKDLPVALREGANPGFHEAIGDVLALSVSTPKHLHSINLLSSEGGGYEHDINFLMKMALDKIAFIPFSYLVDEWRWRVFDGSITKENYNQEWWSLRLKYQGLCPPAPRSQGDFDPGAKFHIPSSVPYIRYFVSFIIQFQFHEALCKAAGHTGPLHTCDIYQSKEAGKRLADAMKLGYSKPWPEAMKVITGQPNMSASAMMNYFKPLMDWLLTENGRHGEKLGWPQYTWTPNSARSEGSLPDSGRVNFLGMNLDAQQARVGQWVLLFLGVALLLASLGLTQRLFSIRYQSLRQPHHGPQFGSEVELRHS
Assay: cell-based or functional assay

B1: SALAM (SEQ. ID. No 8), synthetic peptide, ovalbumin 36-40 (peptide)
peptide: SALAM
- ACEI activity, IC50: 229 µM

B2: RADHPFL (SEQ. ID. No 3), synthetic peptide, ovalbumin 359-365 (peptide)
peptide: RADHPFL
- ACEI activity, IC50: 6.2 µM

B4: ELIN, synthetic peptide, ovalbumin 144-147 (peptide)
peptide: ELIN
- ACEI activity, IC50: > 1000 µM

B5: RDILNQ (SEQ. ID. No 7), synthetic peptide, ovalbumin 84-89 (peptide)
peptide: RDILNQ
- ACEI activity, IC50: 436 µM

B7: ESIINF, synthetic peptide, ovalbumin 256-261 (peptide)
peptide: ESIINF
- ACEI activity, IC50: > 1000 µM

Next, values leading:

- ACEI activity, IC50: 4.7 µM
B3: YAEERYPIL (SEQ. ID. No 6), synthetic peptide, ovalbumin 106-114 (peptide)
peptide: YAEERYPIL

- ACEI activity, IC50: > 1000 µM
B6: VLLPDEVSGL, synthetic peptide, ovalbumin 243-252 (peptide)
peptide: VLLPDEVSGL

- ACEI activity, IC50: 174 µM
B8: YQIGL (SEQ. ID. No 1), synthetic peptide, ovalbumin 212-216 (peptide)
peptide: YQIGL

- ACEI activity, IC50: > 1000 µM
B9: YRGGLEPINF, synthetic peptide, ovalbumin 125-134 (peptide)
peptide: YRGGLEPINF
